Test results reported in the supplement of paper PMC10126150.
± gives the standard deviation of the averaged measurements.

Tested on: ATP
Experiment: switch fluorescence ratio, 500 uM ATP over buffer (Cy3 cluster intensity, sum of 5 cycles each) (fold (ratio)); higher = stronger signal-on switching upon ATP binding; sequences stand for … in TCGTCGGCAGCGTCAGATGTGTATAAGAGACAGTTTTTTTTTTTTTTTTTTTTTTTTT…TC
Conditions: aptamer strand: ATP DNA aptamer (quencher-CACCTGGGGGAGTATTGCGGAGGAAGG + anchor), 100 nM annealed; ATP concentration: 500 uM
How it was run: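 For every switch-domain sequence, the fluorescence ratio is the mean of per-cluster values, each being summed target-cycle Cy3 intensity over summed buffer-cycle Cy3 intensity. Clusters outside 100-1000 RFU were excluded. On a modified Illumina MiSeq flow-cell, the Cy3-labelled switching-strand clusters were annealed to 100 nM quencher-labelled ATP aptamer, imaged in selection buffer and then after 15 min with 500 uM ATP at 22 °C. Five such cycles were run, with NaOH stripping and re-annealing between them.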
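Note: ATP exposure 15 min at 22 °C before imaging.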

Sequence | switch fluorescence ratio
ATTCCTTGGT | 1.03 ± 0.022
ATTCGGGTGT | 1.151 ± 0.0081
ATTCGGTTTT | 0.97 ± 0.013
ATTCGTAGGG | 1.01 ± 0.012
ATTCGTCGTC | 0.983 ± 0.077
ATTCGTTTTA | 0.975 ± 0.013
ATTCGTTTTT | 1 ± 0.021
ATTCTCACGT | 1.06 ± 0.021
ATTCTCCGGG | 1.18 ± 0.065
ATTCTGATTG | 1.02 ± 0.033
ATTCTGGGTT | 0.987 ± 0.032
ATTCTGTAAT | 1.01 ± 0.017
ATTCTTCTCA | 1.02 ± 0.028
ATTCTTGGGT | 1 ± 0.075
ATTCTTTGGC | 1.04 ± 0.097
ATTGAAAAAG | 1.01 ± 0.025
ATTGAAAAAT | 0.983 ± 0.012
ATTGAAACGA | 1.08 ± 0.039
ATTGAACCGG | 1.04 ± 0.012
ATTGAAGATG | 0.971 ± 0.025
ATTGACATGT | 1.03 ± 0.037
ATTGACGGCA | 1.02 ± 0.032
ATTGACGTAT | 1.07 ± 0.13
ATTGACTCTT | 1.003 ± 0.0074
ATTGAGGATG | 1.07 ± 0.17

Sequence | switch fluorescence ratio
ATTGAGTCTG | 1.02 ± 0.047
ATTGAGTGGC | 0.928 ± 0.026
ATTGAGTGTG | 0.979 ± 0.022
ATTGATTTCT | 1.012 ± 0.006
ATTGCAGATC | 1.05 ± 0.058
ATTGCATGAG | 1.004 ± 0.0014
ATTGCGAATT | 1.02 ± 0.022
ATTGCGCCCG | 1.032 ± 0.0088
ATTGCGGGTA | 0.992 ± 0.042
ATTGCTGTTT | 1.037 ± 0.0019
ATTGGACAAT | 1.02 ± 0.032
ATTGGAGGAT | 0.96195 ± 0.0005
ATTGGAGGCT | 0.971 ± 0.075
ATTGGAGGGG | 1.008 ± 0.0041
ATTGGATAAT | 0.9967 ± 0.0091
ATTGGCGTAT | 0.987 ± 0.026
ATTGGCTACT | 0.987 ± 0.013
ATTGGCTGGA | 0.96 ± 0.076
ATTGGCTGTT | 0.997 ± 0.052
ATTGGGACAG | 0.994 ± 0.031
ATTGGGATGA | 0.976 ± 0.025
ATTGGGCAGG | 1.04 ± 0.017
ATTGGGCTGC | 0.977 ± 0.01
ATTGGGGCGT | 0.977 ± 0.016
ATTGGGGTTT | 1 ± 0.019

Sequence | switch fluorescence ratio
ATTGGGTAT | 0.988 ± 0.021
ATTGGGTCGT | 0.992 ± 0.021
ATTGGTGAGG | 0.988 ± 0.032
ATTGGTTAGG | 1.01 ± 0.028
ATTGGTTTCT | 1.04 ± 0.074
ATTGTAATTG | 0.993 ± 0.012
ATTGTAGTGT | 1.01 ± 0.025
ATTGTATGGG | 0.9744 ± 0.0071
ATTGTCTCTA | 0.999 ± 0.032
ATTGTGATTG | 0.997 ± 0.038
ATTGTGTACT | 1 ± 0.031
ATTGTTAAGC | 1.02 ± 0.075
ATTGTTACGT | 0.998 ± 0.012
ATTGTTCAAA | 1 ± 0.015
ATTGTTGTTT | 0.981 ± 0.019
ATTTAAAACC | 1.06 ± 0.015
ATTTAAAAGT | 0.991 ± 0.037
ATTTAAATAG | 0.993 ± 0.035
ATTTAACGGT | 1.03 ± 0.022
ATTTAAGTT | 1.0014 ± 0.00081
ATTTAATTTT | 1.02 ± 0.019
ATTTAGACGT | 0.974 ± 0.026
ATTTAGGGGG | 0.966 ± 0.02
ATTTAGTGAC | 1.02 ± 0.051
ATTTAGTGGT | 1 ± 0.028

Sequence | switch fluorescence ratio
ATTTATATAT | 1 ± 0.05
ATTTATTTGC | 1.01 ± 0.022
ATTTCGACAC | 1.0254 ± 0.001
ATTTCGCCCG | 1.07 ± 0.037
ATTTCGGCAC | 0.9959 ± 0.0091
ATTTCGTGGG | 0.978 ± 0.023
ATTTCTCAGG | 1.07 ± 0.017
ATTTCTGTTT | 1 ± 0.015
ATTTGAACAG | 0.978 ± 0.015
ATTTGAATTA | 1.01 ± 0.034
ATTTGCAATT | 1.03 ± 0.034
ATTTGCAGCA | 1.02 ± 0.014
ATTTGCCTGT | 0.982 ± 0.033
ATTTGCGGTT | 0.9949 ± 0.0022
ATTTGCTTTA | 1.02 ± 0.012
ATTTGGAGGG | 0.969 ± 0.0034
ATTTGGAGTC | 1 ± 0.018
ATTTGGGAGT | 1 ± 0.025
ATTTGGTGGG | 0.97 ± 0.05
ATTTGTATCC | 0.994 ± 0.021
ATTTGTATTC | 1.03 ± 0.031
ATTTGTCAAG | 0.999 ± 0.016
ATTTGTCAGA | 0.98 ± 0.015
ATTTGTCCAA | 0.993 ± 0.028
ATTTGTGATG | 0.994 ± 0.047

Sequence | switch fluorescence ratio
ATTTGTTATT | 1.01 ± 0.024
ATTTTAACGT | 1.01 ± 0.046
ATTTTAAGTT | 0.99 ± 0.034
ATTTTAATAG | 0.9909 ± 0.0056
ATTTTACAGC | 1.03 ± 0.0074
ATTTTACCAT | 1.04 ± 0.075
ATTTTACGAA | 1.028 ± 0.0065
ATTTTAGATC | 1.01 ± 0.034
ATTTTAGCTG | 1.01 ± 0.046
ATTTTAGGGT | 0.989 ± 0.022
ATTTTAGTGC | 1.01 ± 0.053
ATTTTATATT | 1.02 ± 0.032
ATTTTATTTT | 1.01 ± 0.029
ATTTTCGGCT | 0.99 ± 0.0036
ATTTTCTCCG | 1.43 ± 0.63
ATTTTCTTGC | 1 ± 0.038
ATTTTGAACA | 1.019 ± 0.0062
ATTTTGAAGA | 1.01 ± 0.032
ATTTTGAATC | 0.973 ± 0.013
ATTTTGAGAC | 0.995 ± 0.026
ATTTTGAGGA | 1.02 ± 0.015
ATTTTGAGGC | 1.02 ± 0.035
ATTTTGCCGT | 1.02 ± 0.027
ATTTTGGAGC | 0.999 ± 0.058
ATTTTGGCAG | 0.99 ± 0.049

Sequence | switch fluorescence ratio
ATTTTGGGGA | 1.005 ± 0.01
ATTTTGGGGT | 1 ± 0.014
ATTTTGGTTT | 0.989 ± 0.025
ATTTTGTCGG | 0.968 ± 0.018
ATTTTGTTTG | 0.994 ± 0.012
ATTTTTACCT | 1.08 ± 0.19
ATTTTTATGA | 0.967 ± 0.015
ATTTTTCTTA | 1.007 ± 0.0045
ATTTTTGATC | 1.02 ± 0.032
ATTTTTGGCA | 0.995 ± 0.033
ATTTTTGGGA | 0.981 ± 0.028
ATTTTTGTAG | 1.01 ± 0.017
ATTTTTTACG | 1.02 ± 0.031
ATTTTTTCGT | 1.04 ± 0.036
ATTTTTTGAG | 1 ± 0.034
ATTTTTTGCC | 0.962 ± 0.052
ATTTTTTTGC | 1.03 ± 0.029
CAAAAAACGG | 1.13 ± 0.23
CAAAAAAGGG | 1.02 ± 0.021
CAAAAATGGC | 1.02 ± 0.011
CAAAACCTGA | 1.2 ± 0.15
CAAAACGGTT | 1.02 ± 0.048
CAAAAGGGAG | 1.036 ± 0.01
CAAAAGGGGT | 1.004 ± 0.0063
CAAAAGTAGA | 0.991 ± 0.036

Sequence | switch fluorescence ratio
CAAAAGTTGA | 1.01 ± 0.053
CAAAATGTTC | 1.021 ± 0.0086
CAAACGAGGT | 0.994 ± 0.026
CAAACGCCGA | 1.103 ± 0.0045
CAAAGAGCTT | 1 ± 0.028
CAAAGATAGT | 0.996 ± 0.037
CAAAGGAGGC | 1.01 ± 0.048
CAAAGGGCAA | 1.11 ± 0.038
CAAAGGGGCG | 0.975 ± 0.045
CAAAGGGTTA | 0.9906 ± 0.0086
CAAAGTTATA | 1.0129 ± 0.00033
CAAATACGAT | 1.05 ± 0.04
CAAATCAGGA | 1 ± 0.038
CAAATGCATA | 1.08 ± 0.017
CAAATGGGAC | 1.09 ± 0.061
CAAATGGTGG | 1.02 ± 0.0022
CAAATGTTAT | 1.02 ± 0.0088
CAAATTTAAG | 0.982 ± 0.028
CAAATTTGCT | 0.967 ± 0.022
CAACAACATT | 1.07 ± 0.12
CAACATCTCG | 0.993 ± 0.019
CAACATTTTC | 1.03 ± 0.054
CAACGAGGGG | 1.02 ± 0.039
CAACGCGCGG | 0.995 ± 0.045
CAACGGGTTT | 0.997 ± 0.051

Sequence | switch fluorescence ratio
CAACTCTTTT | 0.998 ± 0.038
CAACTGCAGC | 1.26 ± 0.049
CAACTGGGGC | 1.06 ± 0.022
CAACTGTTTT | 1.04 ± 0.1
CAAGAATCTG | 0.9606 ± 0.0091
CAAGAGAATT | 0.9939 ± 0.005
CAAGAGGGCT | 1.024 ± 0.0043
CAAGAGGGGT | 1.01 ± 0.016
CAAGATAGGG | 1.01 ± 0.026
CAAGATGCTC | 1.43 ± 0.03
CAAGATGGGG | 0.95 ± 0.023
CAAGATTCGG | 0.986 ± 0.018
CAAGCATTTT | 1.011 ± 0.0016
CAAGCGGATT | 1 ± 0.033
CAAGCTAGCG | 1.04 ± 0.016
CAAGCTTGAA | 0.963 ± 0.026
CAAGGAGGGT | 0.9726 ± 0.0079
CAAGGAGTTA | 1.01 ± 0.04
CAAGGGGACG | 1.004 ± 0.0082
CAAGGGGGGC | 0.972 ± 0.03
CAAGGGGTCG | 0.9946 ± 0.0066
CAAGGGTATG | 1.03 ± 0.046
CAAGGGTCGG | 0.996 ± 0.033
CAAGGTGGAT | 1.051 ± 0.009
CAAGGTTATA | 1 ± 0.022
